The values below come from paper PMC10097392, “Ligand Installation to Polymeric Micelles for Pediatric Brain Tumor Targeting” (Polymers, 2023).

The target of this test is T1, CD276/B7-H3 (Homo sapiens (endogenous on DAOY …, UniProt Q5ZPR3)).
T1 construct: CD276/B7-H3, transmembrane protein, endogenous on medulloblastoma patient-derived DAOY cells; source: endogenous, on GFP-expressing DAOY (HTB-186) medulloblastoma cells
Briefly: immunostaining of cells or tissue; inhibition assay on live GFP-expressing DAOY cells: CD276Ab at 0, 12.5, 25.0, 50.0 and 100 ug/mL for 1 h at 37 °C, washed, then DBCO-CD276Ab-Cy5 (30.0 ug/mL) for 1 h at 37 °C; Cy5 fluorescence within cells by confocal laser scanning microscopy. To be noted: one partner purified.

T1 sequence (Q5ZPR3 29-534): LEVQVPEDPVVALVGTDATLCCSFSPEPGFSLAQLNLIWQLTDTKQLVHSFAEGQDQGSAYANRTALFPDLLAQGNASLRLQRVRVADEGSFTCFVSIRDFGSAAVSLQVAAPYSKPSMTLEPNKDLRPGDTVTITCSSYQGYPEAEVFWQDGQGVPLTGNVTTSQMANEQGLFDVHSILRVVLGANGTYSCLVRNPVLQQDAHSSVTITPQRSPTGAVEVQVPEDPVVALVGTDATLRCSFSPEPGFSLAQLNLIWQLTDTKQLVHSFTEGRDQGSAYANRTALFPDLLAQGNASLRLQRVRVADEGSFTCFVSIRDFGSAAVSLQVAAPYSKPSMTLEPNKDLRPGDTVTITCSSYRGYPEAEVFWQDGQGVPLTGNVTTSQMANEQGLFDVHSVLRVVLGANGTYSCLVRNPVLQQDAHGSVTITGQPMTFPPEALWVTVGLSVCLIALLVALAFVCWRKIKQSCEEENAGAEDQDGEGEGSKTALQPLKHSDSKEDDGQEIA

B1: Cy5-labeled DBCO-CD276Ab (DBCO-CD276Ab-Cy5) (antibody, V domains shown)
VH: QVQLQQSGAELVKPGASVKLSCKASGYTFTNYDINWVRQRPEQGLEWIGWIFPGDGSTQYNEKFKGKATLTTDTSSSTAYMQLSRLTSEDSAVYFCARQTTATWFAYWGQGTLVTVSA
VL: DIVMTQSPATLSVTPGDRVSLSCRASQSISDYLHWYQQKSHESPRLLIKYASQSISGIPSRFSGSGSGSDFTLSINSVEPEDVGVYYCQNGHSFPLTFGAGTKLELK
notes: as in m1: constant region of the IgG heavy chain as far as it is not in PDB 5CMA; m1 chemically modified: DBCO-PEG4-NHS fed at 0.25 eq. to primary amines, then Cy5-NHS ester; also called the fabricated antibody; source: CD276Ab from Expi CHO cells, conjugated with DBCO-PEG4-NHS and Cy5-NHS ester, purified (Protein G HP SpinTrap)
As for B1, the binding result was “binds”.

B2: anti-CD276 antibody (CD276Ab), 8H9 antibody, IgG (antibody, V domains shown)
VH: QVQLQQSGAELVKPGASVKLSCKASGYTFTNYDINWVRQRPEQGLEWIGWIFPGDGSTQYNEKFKGKATLTTDTSSSTAYMQLSRLTSEDSAVYFCARQTTATWFAYWGQGTLVTVSA
VL: DIVMTQSPATLSVTPGDRVSLSCRASQSISDYLHWYQQKSHESPRLLIKYASQSISGIPSRFSGSGSGSDFTLSINSVEPEDVGVYYCQNGHSFPLTFGAGTKLELK
notes: heavy chain of 8H9; constant region of the IgG heavy chain as far as it is not in PDB 5CMA; light chain of 8H9; IgG; the fabrication scheme is said to be in the Supplementary Materials; also called 'as prepared' CD276Ab; source: Expi CHO cells, co-transfected with heavy and light chain vectors, purified from supernatant (rProtein A Sepharose, SEC)
Turning to B2, the binding result is reported as “binds”.
